Measured values taken from IntAct's records for PubMed 19242489.

B1: Integrin beta-4 (Homo sapiens), P16144 (parent)
chain: MAGPRPSPWARLLLAALISVSLSGTLANRCKKAPVKSCTECVRVDKDCAYCTDEMFRDRRCNTQAELLAAGCQRESIVVMESSFQITEETQIDTTLRRSQMSPQGLRVRLRPGEERHFELEVFEPLESPVDLYILMDFSNSMSDDLDNLKKMGQNLARVLSQLTSDYTIGFGKFVDKVSVPQTDMRPEKLKEPWPNSDPPFSFKNVISLTEDVDEFRNKLQGERISGNLDAPEGGFDAILQTAVCTRDIGWRPDSTHLLVFSTESAFHYEADGANVLAGIMSRNDERCHLDTTGTYTQYRTQDYPSVPTLVRLLAKHNIIPIFAVTNYSYSYYEKLHTYFPVSSLGVLQEDSSNIVELLEEAFNRIRSNLDIRALDSPRGLRTEVTSKMFQKTRTGSFHIRRGEVGIYQVQLRALEHVDGTHVCQLPEDQKGNIHLKPSFSDGLKMDAGIICDVCTCELQKEVRSARCSFNGDFVCGQCVCSEGWSGQTCNCSTGSLSDIQPCLREGEDKPCSGRGECQCGHCVCYGEGRYEGQFCEYDNFQCPRTSGFLCNDRGRCSMGQCVCEPGWTGPSCDCPLSNATCIDSNGGICNGRGHCECGRCHCHQQSLYTDTICEINYSAIHPGLCEDLRSCVQCQAWGTGEKKGRTCEECNFKVKMVDELKRAEEVVVRCSFRDEDDDCTYSYTMEGDGAPGPNSTVLVHKKKDCPPGSFWWLIPLLLLLLPLLALLLLLCWKYCACCKACLALLPCCNRGHMVGFKEDHYMLRENLMASDHLDTPMLRSGNLKGRDVVRWKVTNNMQRPGFATHAASINPTELVPYGLSLRLARLCTENLLKPDTRECAQLRQEVEENLNEVYRQISGVHKLQQTKFRQQPNAGKKQDHTIVDTVLMAPRSAKPALLKLTEKQVEQRAFHDLKVAPGYYTLTADQDARGMVEFQEGVELVDVRVPLFIRPEDDDEKQLLVEAIDVPAGTATLGRRLVNITIIKEQARDVVSFEQPEFSVSRGDQVARIPVIRRVLDGGKSQVSYRTQDGTAQGNRDYIPVEGELLFQPGEAWKELQVKLLELQEVDSLLRGRQVRRFHVQLSNPKFGAHLGQPHSTTIIIRDPDELDRSFTSQMLSSQPPPHGDLGAPQNPNAKAAGSRKIHFNWLPPSGKPMGYRVKYWIQGDSESEAHLLDSKVPSVELTNLYPYCDYEMKVCAYGAQGEGPYSSLVSCRTHQEVPSEPGRLAFNVVSSTVTQLSWAEPAETNGEITAYEVCYGLVNDDNRPIGPMKKVLVDNPKNRMLLIENLRESQPYRYTVKARNGAGWGPEREAIINLATQPKRPMSIPIIPDIPIVDAQSGEDYDSFLMYSDDVLRSPSGSQRPSVSDDTGCGWKFEPLLGEELDLRRVTWRLPPELIPRLSASSGRSSDAEAPHGPPDDGGAGGKGGSLPRSATPGPPGEHLVNGRMDFAFPGSTNSLHRMTTTSAAAYGTHLSPHVPHRVLSTSSTLTRDYNSLTRSEHSHSTTLPRDYSTLTSVSSHDSRLTAGVPDTPTRLVFSALGPTSLRVSWQEPRCERPLQGYSVEYQLLNGGELHRLNIPNPAQTSVVVEDLLPNHSYVFRVRAQSQEGWGREREGVITIESQVHPQSPLCPLPGSAFTLSTPSAPGPLVFTALSPDSLQLSWERPRRPNGDIVGYLVTCEMAQGGGPATAFRVDGDSPESRLTVPGLSENVPYKFKVQARTTEGFGPEREGIITIESQDGGPFPQLGSRAGLFQHPLQSEYSSITTTHTSATEPFLVDGLTLGAQHLEAGGSLTRHVTQEFVSRTLTTSGTLSTHMDQQFFQT

Variants of: B1
Conditions: with plec_human PLEC

R1225H was tested. Which “effect of a mutation on the interaction” value did it give?
Its value is “disrupting interaction”.

Variants of: B1
Conditions: with plec_human PLEC
Remark: another data set of the same source

With R1281A as the variant, how does the “effect of a mutation on the interaction” value read?
The value was “disrupting interaction”.
